Like-named read-outs stand apart in the source and are kept apart here. One block for each substance: values may come before it. Where no end group is shown, it is not given here. [ ]: non-standard residue; d: D form. The star is where a group is joined. Isobutyryl(2-imidazol-4-yl) = CC(C)(C(=O)*)c1c[nH]cn1; DMIA = not defined here; PEG = not defined here; Aib = CC(C)(N)C(=O)O
Assays:
glucagon receptor = target: T1, glucagon receptor (Homo sapiens, UniProt P47871); assay: Functional assay-cAMP synthesis, luciferase reporter in HEK293 cells co-transfected with glucagon receptor; assay type: cell-based; details: for Parent w/PEG % Potency Relative to Native GR / Parent w/o PEG % Potency Relative to Native GR: Table 12; for Parent w/PEG % Potency Relative to Native GR: pegylated peptide; for Parent w/o PEG % Potency Relative to Native GR: peptide without PEG
T1 construct: expressed in transfected cells; host or cells: HEK293

GLP-1 receptor = target: T2, GLP-1 receptor (Homo sapiens, UniProt P43220); assay: Functional assay-cAMP synthesis, luciferase reporter in HEK293 cells co-transfected with GLP-1 receptor; assay type: cell-based
T2 construct: expressed in transfected cells; host or cells: HEK293
T2 sequence (P43220 24-463, species assumed): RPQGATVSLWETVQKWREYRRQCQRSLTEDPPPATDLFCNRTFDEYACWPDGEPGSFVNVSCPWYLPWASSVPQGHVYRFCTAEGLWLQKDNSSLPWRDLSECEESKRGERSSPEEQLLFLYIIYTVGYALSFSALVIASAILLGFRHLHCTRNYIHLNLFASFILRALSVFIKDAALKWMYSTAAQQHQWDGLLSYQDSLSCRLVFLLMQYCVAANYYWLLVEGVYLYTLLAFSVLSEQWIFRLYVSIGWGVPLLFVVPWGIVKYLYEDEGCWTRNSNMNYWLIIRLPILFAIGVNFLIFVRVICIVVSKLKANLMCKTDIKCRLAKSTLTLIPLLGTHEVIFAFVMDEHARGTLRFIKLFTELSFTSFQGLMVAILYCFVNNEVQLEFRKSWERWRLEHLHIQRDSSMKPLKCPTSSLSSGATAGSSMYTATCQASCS

T1 sequence (P47871 26-477): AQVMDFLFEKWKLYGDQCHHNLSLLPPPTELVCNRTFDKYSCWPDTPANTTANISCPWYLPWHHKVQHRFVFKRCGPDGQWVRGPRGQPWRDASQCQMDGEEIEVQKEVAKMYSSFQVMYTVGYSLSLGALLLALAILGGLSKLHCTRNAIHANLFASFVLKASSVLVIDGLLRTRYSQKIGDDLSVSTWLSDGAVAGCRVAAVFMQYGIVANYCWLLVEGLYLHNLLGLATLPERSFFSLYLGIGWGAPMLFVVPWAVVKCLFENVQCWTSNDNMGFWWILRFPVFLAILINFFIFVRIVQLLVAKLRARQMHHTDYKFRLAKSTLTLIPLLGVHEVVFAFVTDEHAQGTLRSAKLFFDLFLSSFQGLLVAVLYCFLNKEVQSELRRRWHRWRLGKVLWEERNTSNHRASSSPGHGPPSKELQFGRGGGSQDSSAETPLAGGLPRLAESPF

Substance: HX2QGT FTSDY SKYLD EQAAK EFIC*W LMNTa
Parent w/PEG % Potency Relative to Native GR (glucagon receptor): 9.2%
Parent w/o PEG % Potency Relative to Native GR (glucagon receptor): 114.2%
Parent w/PEG % Potency Relative to Native GLP-1R (GLP-1 receptor): 38.0%
Parent w/o PEG % Potency Relative to Native GLP-1R (GLP-1 receptor): 230.4%

Substance: HX2QGT FTSDY SKYLD EQAAK EFIC*W LMNGG PSSGA PPPSa (H[Aib]QGTFTSDYSKYLDEQAAKEFICWLMNGGPSSGAPPPS-NH2; lactam (positions not given here); also: optional PEG on Cys24) [X2=AIB; C* is Cys or Cys attached to PEG]
Parent w/PEG % Potency Relative to Native GR (glucagon receptor): 1.4%
Parent w/o PEG % Potency Relative to Native GR (glucagon receptor): 25.2%
Parent w/PEG % Potency Relative to Native GLP-1R (GLP-1 receptor): 96.4%
Parent w/o PEG % Potency Relative to Native GLP-1R (GLP-1 receptor): 381.5%

Substance: X1SQGT FTSDY SKYLD ERRAK DFVC*W LMNGG PSSGA PPPSa ([DMIA]SQGTFTSDYSKYLDERRAKDFVCWLMNGGPSSGAPPPS-NH2; lactam (positions not given here); not fully specified; reading uncertain) [X1=DMIA; C* is Cys or Cys attached to PEG]
Parent w/PEG % Potency Relative to Native GR (glucagon receptor): 12.6%
Parent w/o PEG % Potency Relative to Native GR (glucagon receptor): 116.0%
Parent w/PEG % Potency Relative to Native GLP-1R (GLP-1 receptor): 11.3%
Parent w/o PEG % Potency Relative to Native GLP-1R (GLP-1 receptor): 78.3%

Substance: HX2QGT FTSDYSKYLDEQAAKEFIAWLMNGGPSSGAPPPSC*a (H[Aib]QGTFTSDYSKYLDEQAAKEFIAWLMNGGPSSGAPPPSC-NH2; lactam (positions not given here); also: optional PEG on Cys40) [X2=AIB; C* is Cys or Cys attached to PEG]
Parent w/PEG % Potency Relative to Native GR (glucagon receptor): 3.2%
Parent w/o PEG % Potency Relative to Native GR (glucagon receptor): 14.2%
Parent w/PEG % Potency Relative to Native GLP-1R (GLP-1 receptor): 63.6%
Parent w/o PEG % Potency Relative to Native GLP-1R (GLP-1 receptor): 169.6%

Substance: HSQGTFTSDYSKYLDEQAAKEFIAWLVKG-NH2 [E16 GLP(17-29)-NH2, HSQGTFTSDYSKYLDEQAAKEFIAW LVKGa]
EC50 (glucagon receptor; Glucagon Receptor EC50(nM), Table 10, GLP-1 17-26 glucagon analogs): 0.46 nM
EC50 (GLP-1 receptor): 0.01 nM

Substance: HSQGT FTSDYSKYLD EQAAK EFIC*W LMNTa (HSQGTFTSDYSKYLDEQAAKEFIC(PEG)WLMNT-NH2; reading uncertain) [Chimera Cys24 (SEQ ID NO: 518), C* is Cys attached to PEG in the tested form]
Parent w/PEG % Potency Relative to Native GR (glucagon receptor): 19.8%
Parent w/PEG % Potency Relative to Native GLP-1R (GLP-1 receptor; Table 12, pegylated peptide): 29.3%

Substance: HX2QGT FTSDY SKYLD EQAAK EFIC*W LMNGG PSSGA PPPSa (H[Aib]QGTFTSDYSKYLDEQAAKEFICWLMNGGPSSGAPPPS-NH2; also: optional PEG on Cys24) [X2=AIB; C* is Cys or Cys attached to PEG]
Parent w/PEG % Potency Relative to Native GR (glucagon receptor): 0.2%
Parent w/o PEG % Potency Relative to Native GR (glucagon receptor): 2.5%
Parent w/PEG % Potency Relative to Native GLP-1R (GLP-1 receptor; Table 12, pegylated peptide): 95.4%
Parent w/o PEG % Potency Relative to Native GLP-1R (GLP-1 receptor; Table 12, peptide without PEG): 457.8%

Results, then the substance that gave them:

Percent Potency Relative to Native Ligand GRec (glucagon receptor; Table 4, relative to native glucagon): 1.6%
Percent Potency Relative to Native Ligand GLP-1Rec (GLP-1 receptor; Table 4, relative to native GLP-1): 28.8%
Substance: HSEGTFTSDYSKYLDERRAQDFVQW LMNTa (HSEGTFTSDYSKYLDERRAQDFVQWLMNT-NH2) [E3, E16 Gluc-NH2]

Parent w/PEG % Potency Relative to Native GR (glucagon receptor): 5.3%
Parent w/PEG % Potency Relative to Native GLP-1R (GLP-1 receptor; Table 12, pegylated peptide): 27.3%
Substance: X1SQGT FTSDYSKYLD EQAAK EFIAW LMNC*a ([Isobutyryl(2-imidazol-4-yl)]SQGTFTSDYSKYLDEQAAKEFIAWLMNC(PEG)-NH2; reading uncertain) [Chimera DMIA1, Cys29 (SEQ ID NO: 520), X1=DMIA; C* is Cys attached to PEG in the tested form]

Parent w/PEG % Potency Relative to Native GR (glucagon receptor): 2.6%
Parent w/o PEG % Potency Relative to Native GR (glucagon receptor): 15.4%
Parent w/PEG % Potency Relative to Native GLP-1R (GLP-1 receptor; Table 12, pegylated peptide): 82.5%
Parent w/o PEG % Potency Relative to Native GLP-1R (GLP-1 receptor; Table 12, peptide without PEG): 160.6%
Substance: HX2QGT FTSDY SKYLD EQAAK EFIC*W LMNTa [Chimera AIB2, Cys24 (SEQ ID NO: 486)]

Reference: US8900593B2 (Indiana University Research and Technology Corporation, priority 2007, dated 2014)
